Consider one molecule from article PMC2698432.

One data set deals with T1, SarZ (Staphylococcus aureus, UniProt Q5HDG9 1-148).
T1 sequence: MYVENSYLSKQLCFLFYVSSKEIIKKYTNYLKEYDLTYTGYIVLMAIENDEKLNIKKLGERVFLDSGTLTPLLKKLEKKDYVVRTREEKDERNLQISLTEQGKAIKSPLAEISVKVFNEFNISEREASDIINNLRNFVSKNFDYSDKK
The data set can be described thus: EMSA. A general note: A gel shift assay detects complexes by their altered migration in electrophoresis.

The next data set addresses SarZ C13S (Staphylococcus aureus, UniProt Q5HDG9 1-148, C13S). The data set can be described thus: EMSA.

B1: ohr promoter fragment (ohr1/ohr2) (dsDNA)
DNA 1: TTTTCGAATGGGTAAAGCATAAATGTATTTTAAATTAGGAGGTTATAAGT
DNA 2: ACTTATAACCTCCTAATTTAAAATACATTTATGCTTTACCCATTCGAAAA
Consider B1, for which the binding result with SarZ and with SarZ C13S was “binds” each time.
